According to paper PMC5864733:

Molecular target: CsrA (Escherichia coli EPEC O127:H6 E2348/69, UniProt B7UHB4 1-61)
Assay: EMSA; no CesT
Conditions: protein: recombinant; tags: GST tag, cleaved by PreScission (pGEX-6P-1); chain copies: 2; label: none (ethidium bromide stain); single strand, heated to 80 C and slowly cooled

CsrA, sequence (B7UHB4 whole entry): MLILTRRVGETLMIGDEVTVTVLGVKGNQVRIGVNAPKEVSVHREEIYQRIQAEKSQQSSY

CACUAAUAAUAUCAAUGGAUUGAUAUUAUUAAUG (structured_RNA) [nleA 5'UTR RNA]
binding result: binds
